In PMC10450164:

B1: GCt/GGC (dsDNA)
DNA 1: GTGCTCGAGGCAG
DNA 2: CTGCCTCGAGCAC
B2: GmCC/GGC (dsDNA)
DNA 1: GTGCCCGAGGCAG
DNA 2: CTGCCTCGGGCAC
modifications: methylcytosine at position 4 of strand 1; second strand methylation not stated
B3: aCC/GGC (dsDNA)
DNA 1: GTACCCGAGGCAG
DNA 2: CTGCCTCGGGTAC
B4: cCC/GGC (dsDNA)
DNA 1: GTCCCCGAGGCAG
DNA 2: CTGCCTCGGGGAC
B5: TGA (dsDNA)
DNA 1: GTGCCTGAGGCAG
DNA 2: CTGCCTCAGGCAC
B6: CGA (GCC(N3)GGC) (dsDNA)
DNA 1: GTGCCCGAGGCAG
DNA 2: CTGCCTCGGGCAC
B7: GCmC/GGC (dsDNA)
DNA 1: GTGCCCGAGGCAG
DNA 2: CTGCCTCGGGCAC
modifications: methylcytosine at position 5 of strand 1; second strand methylation not stated
B8: tCC/GGC (dsDNA)
DNA 1: GTTCCCGAGGCAG
DNA 2: CTGCCTCGGGAAC
B9: cCC/GGg (dsDNA)
DNA 1: GTCCCCGAGGGAG
DNA 2: CTCCCTCGGGGAC
B10: N4 (4 bp spacer) (dsDNA)
DNA 1: GTGCCCGATGGCAG
DNA 2: CTGCCATCGGGCAC

Tests used:
Assay in all cases: ITC
TFAP2A DBD-HSH WT = TFAP2A DBD-HSH WT (Homo sapiens, UniProt P05549 203-420)
TFAP2B DBD-HSH WT = TFAP2B DBD-HSH WT (Homo sapiens, UniProt Q92481 219-457)
TFAP2B R285Q = TFAP2B R285Q (Homo sapiens, UniProt Q92481 219-457, R285Q)
TFAP2B L284S = TFAP2B L284S (Homo sapiens, UniProt Q92481 219-457, L284S)
TFAP2B R300C = TFAP2B R300C (Homo sapiens, UniProt Q92481 219-457, R300C)
TFAP2A R217S = TFAP2A R217S (Homo sapiens, UniProt P05549 203-420, R217S)
TFAP2B R236C = TFAP2B R236C (Homo sapiens, UniProt Q92481 219-457, R236C)
TFAP2A G262E = TFAP2A G262E (Homo sapiens, UniProt P05549 203-420, G262E)
TFAP2B K276R = TFAP2B K276R (Homo sapiens, UniProt Q92481 219-457, K276R)
TFAP2B V336I = TFAP2B V336I (Homo sapiens, UniProt Q92481 219-457, V336I)
Sequence of TFAP2B V336I (Q92481 219-457 V336I): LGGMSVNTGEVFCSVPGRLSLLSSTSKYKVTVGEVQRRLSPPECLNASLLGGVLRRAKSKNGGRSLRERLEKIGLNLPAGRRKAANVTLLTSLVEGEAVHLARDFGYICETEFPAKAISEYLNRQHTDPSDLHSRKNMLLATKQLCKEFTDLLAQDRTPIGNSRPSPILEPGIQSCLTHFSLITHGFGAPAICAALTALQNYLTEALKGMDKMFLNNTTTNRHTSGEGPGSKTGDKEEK

Sequence of TFAP2B DBD-HSH WT (Q92481 219-457): as the sequence (Q92481 219-457 V336I) above, with I118V counted along it
Sequence of TFAP2A DBD-HSH WT (P05549 203-420): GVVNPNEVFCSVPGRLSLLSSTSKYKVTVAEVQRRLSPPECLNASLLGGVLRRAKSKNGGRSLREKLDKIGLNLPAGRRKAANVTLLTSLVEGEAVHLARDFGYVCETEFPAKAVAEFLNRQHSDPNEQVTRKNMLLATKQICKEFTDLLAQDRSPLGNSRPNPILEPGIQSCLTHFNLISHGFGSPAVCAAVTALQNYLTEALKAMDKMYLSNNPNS
Sequence of TFAP2B L284S (Q92481 219-457 L284S): as the sequence (Q92481 219-457 V336I) above, with L66S, I118V counted along it
Sequence of TFAP2B R300C (Q92481 219-457 R300C): as the sequence (Q92481 219-457 V336I) above, with R82C, I118V counted along it
Sequence of TFAP2A R217S (P05549 203-420 R217S): as the sequence (P05549 203-420) above, with R15S counted along it
Sequence of TFAP2B R285Q (Q92481 219-457 R285Q): as the sequence (Q92481 219-457 V336I) above, with R67Q, I118V counted along it
Sequence of TFAP2A G262E (P05549 203-420 G262E): as the sequence (P05549 203-420) above, with G60E counted along it
Sequence of TFAP2B R236C (Q92481 219-457 R236C): as the sequence (Q92481 219-457 V336I) above, with R18C, I118V counted along it
Sequence of TFAP2B K276R (Q92481 219-457 K276R): as the sequence (Q92481 219-457 V336I) above, with K58R, I118V counted along it

Binder | Kd (TFAP2A DBD-HSH WT) [nM] | Kd (TFAP2B DBD-HSH WT) [nM] | further results
B1 | 694 ± 71 | 461 ± 71 | 
B2 | 347 ± 3 | 299 ± 22 | 
B3 | 373 ± 46 | 313 ± 69 | 
B4 | 78 ± 16 | 55 ± 7 | 
B5 | 17 ± 1 | 19 ± 2 | 
B6 | 19 ± 1 | 18 ± 2 | Kd (TFAP2B R285Q): 178 ± 43 nM; binding result (TFAP2B L284S): no binding; Kd (TFAP2B R300C): 88 ± 20 nM; binding result (TFAP2A R217S): no binding; binding result (TFAP2B R236C): no binding; Kd (TFAP2A G262E): 129 ± 22 nM; Kd (TFAP2B K276R): 382 ± 36 nM; Kd (TFAP2B V336I): 44 ± 9 nM
B7 | 107 ± 3 | 126 ± 12 | 
B8 | 565 ± 87 | 248 ± 49 | 
B9 | 336 ± 53 | 355 ± 57 | 
B10 | 341 ± 20 | 340 ± 17 | 
